Source: patent publication US8361965B2, “Recombinant chimeric protein of neutrophil inhibitory factor and hirugen, and pharmaceutical composition thereof” (Lunan Pharmaceutical Group Corporation, priority 2008, dated 2013)

How the values were obtained:
Human fibrin = molecular target: T1, Human fibrin (Homo sapiens, UniProt P02671+P02675+P02679); test: in vitro binding of TNHH to fibrin (SEC-HPLC); details: 37° C. 1 h
T1 construct: Human fibrin (1 g/ampoule, F5386), Sigma company; purchased Sigma F5386
T1 sequence (P02671 36-629 limits assumed): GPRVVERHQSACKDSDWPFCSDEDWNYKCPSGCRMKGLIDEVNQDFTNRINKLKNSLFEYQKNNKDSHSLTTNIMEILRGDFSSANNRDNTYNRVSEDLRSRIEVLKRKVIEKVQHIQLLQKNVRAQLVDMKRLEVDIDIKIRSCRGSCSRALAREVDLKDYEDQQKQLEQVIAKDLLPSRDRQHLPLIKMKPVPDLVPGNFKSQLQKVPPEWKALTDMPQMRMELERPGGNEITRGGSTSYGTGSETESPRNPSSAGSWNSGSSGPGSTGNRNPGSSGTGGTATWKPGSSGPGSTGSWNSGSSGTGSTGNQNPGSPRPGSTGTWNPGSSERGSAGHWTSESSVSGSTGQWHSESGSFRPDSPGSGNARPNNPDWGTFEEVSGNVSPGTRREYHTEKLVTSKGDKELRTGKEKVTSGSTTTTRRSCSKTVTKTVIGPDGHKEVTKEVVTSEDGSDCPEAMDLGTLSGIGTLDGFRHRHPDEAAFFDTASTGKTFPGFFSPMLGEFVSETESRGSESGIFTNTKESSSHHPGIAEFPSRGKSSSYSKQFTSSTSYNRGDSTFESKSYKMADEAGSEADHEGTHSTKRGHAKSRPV
T1 sequence (P02675 45-491 limits assumed): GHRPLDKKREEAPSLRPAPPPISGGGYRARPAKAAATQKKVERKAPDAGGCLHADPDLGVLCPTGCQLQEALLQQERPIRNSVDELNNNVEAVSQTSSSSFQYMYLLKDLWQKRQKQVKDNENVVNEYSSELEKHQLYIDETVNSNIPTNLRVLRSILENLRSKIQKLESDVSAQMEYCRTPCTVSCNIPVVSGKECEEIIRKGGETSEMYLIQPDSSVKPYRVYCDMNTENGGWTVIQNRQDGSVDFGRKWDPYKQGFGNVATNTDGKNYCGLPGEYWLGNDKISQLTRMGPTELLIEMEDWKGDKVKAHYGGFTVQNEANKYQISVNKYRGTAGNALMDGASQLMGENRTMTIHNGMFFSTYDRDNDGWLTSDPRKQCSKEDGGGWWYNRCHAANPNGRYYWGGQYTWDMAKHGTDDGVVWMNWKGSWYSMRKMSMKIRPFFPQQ
T1 sequence (P02679 27-437 isoform P02679-2 limits assumed): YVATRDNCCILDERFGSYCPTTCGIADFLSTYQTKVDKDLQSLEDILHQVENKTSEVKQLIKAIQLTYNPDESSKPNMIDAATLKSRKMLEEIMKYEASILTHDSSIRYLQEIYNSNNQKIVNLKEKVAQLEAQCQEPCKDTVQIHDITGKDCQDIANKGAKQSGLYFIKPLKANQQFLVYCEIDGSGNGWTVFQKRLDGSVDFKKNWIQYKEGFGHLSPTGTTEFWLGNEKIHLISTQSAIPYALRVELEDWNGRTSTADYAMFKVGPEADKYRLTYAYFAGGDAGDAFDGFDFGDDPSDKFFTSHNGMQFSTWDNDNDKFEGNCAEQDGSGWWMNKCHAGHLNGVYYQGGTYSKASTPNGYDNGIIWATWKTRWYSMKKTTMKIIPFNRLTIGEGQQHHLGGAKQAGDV
Experimental: Weigh TNHH, dilute to 1.0 mg/ml with phosphate buffer solution, and is ready for use; Weight fibrin precisely, dissolve and dilute to 0.1 mg/ml with phosphate buffer solution, and is ready for use; Weigh thrombin, dissolve and dilute to 100 units/ml with phosphate buffer solution, which is ready for use.
Following the below procedures, test materials were reacted at 37° C. for 1 h, and then analyzed under the following chromatographic conditions.
(1) pipette test material solutions (20 μl for each), loading for analysis, and recording each retention time.
(2) pipette fibrin and thrombin solutions (0.5 ml for each), mixing and reacting at 37° C. for 1 h, and loading 20 μl sample for analysis.
(3) pipette TNHH and fibrin solutions (0.5 ml for each), mixing and reacting at 37° C. for 1 h, and loading 20 μl sample for analysis.
(4) pipette TNHH and thrombin solutions (0.5 ml for each), mixing and reacting at 37° C. for 1 h, and loading 20 μl sample for analysis.
(5) pipette TNHH and mixture of fibrin and thrombin solutions (0.5 ml for each), mixing and reacting at 37° C. for 1 h, and loading 20 μl sample for analysis.
Flow rate 0.5 ml/min; detection wavelength: 214 nm, Column temperature: room temperature; chromatogram recording time: 25 min.

blood coagulation system = test: effects on blood coagulation system of New Zealand rabbits in vivo (APTT, PT, TT); parameters: species or system New Zealand rabbit; PT: unit not given beside the values; APTT / TT: unit not given here
Experimental: Medicaments were administrated via intravenous injection from marginal ear vein, and 1.8 ml blood was harvested from marginal ear veins at the time of before administration (0 min), and 10 min, 30 min, 60 min, 120 min and 240 min after administration, respectively (the time for injecting is 2 min). 3.2% sodium citrate (9:1) was added for anticoagulation and then mixed and centrifuged at 3000 rpm/min for 3 min. The plasma was send to Department of Clinical Laboratory, Southwest Hospital for determining blood coagulation indexes (APTT, TT and PT) with a full automatic coagulation analyzer and the difference before and after administration was obtained by comparison.

[1] = TNHH 3.375 mg/kg i.v., 0 min (before administration)
[2] = TNHH 6.675 mg/kg i.v., 0 min (before administration)
[3] = dose in great excess of the effective dose

B1: TNHH: recombinant chimeric protein of neutrophil inhibitory factor and hirugen, Met-NIF-GGGGG-FPRPGSGG-Hirugen (SEQ ID NO: 3), expressed in E. coli (protein)
chain: MNEHNLRCPQNGTEMPGFNDSIRLQFLAMHNGYRSKLALGHISITEESESDDDDDFGFLPDFAPRASKMRYLEYDCEAEKSAYMSARNCSDSSSPPEGYDENKYIFENSNNISEAALKAMISWAKEAFNLNKTKEGEGVLYRSNHDISNFANLAWDAREKFGCAVVNCPLGEIDDETNHDGETYATTIHVVCHYPKINKTEGQPIYKVGTPCDDCSEYTKKADNTTSADPVCIPDDGVCFIGSKADYDSKEFYRFRELGGGGGFPRPGSGGNGDFEEIPEEYL
modifications: N-terminal Met
With B1 the binding with fibrin (Human fibrin) was “could bind with fibrin and thrombin”, the APTT (blood coagulation system; [1]) was 36.45 ± 6.60 and the PT (blood coagulation system; [1]) was 6.78 ± 0.28. It also gave a TT (blood coagulation system; [1]) of 15.57 ± 1.09, an APTT (blood coagulation system; TNHH 3.375 mg/kg i.v., 10 min) of 37.38 ± 6.35 and a PT (blood coagulation system; TNHH 3.375 mg/kg i.v., 10 min) of 6.90 ± 0.21. For the same molecule, the TT (blood coagulation system; TNHH 3.375 mg/kg i.v., 10 min) was 23.23 ± 2.47, the APTT (blood coagulation system; TNHH 3.375 mg/kg i.v., 30 min) was 31.97 ± 2.11 and the PT (blood coagulation system; TNHH 3.375 mg/kg i.v., 30 min) was 6.85 ± 0.23. For the same molecule, the TT (blood coagulation system; TNHH 3.375 mg/kg i.v., 30 min) was 16.13 ± 1.31, the APTT (blood coagulation system; TNHH 3.375 mg/kg i.v., 60 min) was 31.93 ± 2.39 and the PT (blood coagulation system; TNHH 3.375 mg/kg i.v., 60 min) was 6.78 ± 0.22. For the same molecule, the TT (blood coagulation system; TNHH 3.375 mg/kg i.v., 60 min) was 14.75 ± 1.44, the APTT (blood coagulation system; TNHH 3.375 mg/kg i.v., 120 min) was 30.52 ± 6.86 and the PT (blood coagulation system; TNHH 3.375 mg/kg i.v., 120 min) was 6.87 ± 0.32. For the same molecule, the TT (blood coagulation system; TNHH 3.375 mg/kg i.v., 120 min) was 14.02 ± 0.79, the APTT (blood coagulation system; TNHH 3.375 mg/kg i.v., 240 min) was 35.65 ± 9.36 and the PT (blood coagulation system; TNHH 3.375 mg/kg i.v., 240 min) was 7.02 ± 0.24. It also gave a TT (blood coagulation system; TNHH 3.375 mg/kg i.v., 240 min) of 14.65 ± 1.14, an APTT (blood coagulation system; [2]) of 44.25 ± 5.39 and a PT (blood coagulation system; [2]) of 6.88 ± 0.17. The TT (blood coagulation system; [2]) was 15.97 ± 1.42, the APTT (blood coagulation system; TNHH 6.675 mg/kg i.v., 10 min) was 39.87 ± 4.98 and the PT (blood coagulation system; TNHH 6.675 mg/kg i.v., 10 min) was 7.17 ± 0.36. For the same molecule, the TT (blood coagulation system; TNHH 6.675 mg/kg i.v., 10 min) was 33.57 ± 4.47, the APTT (blood coagulation system; TNHH 6.675 mg/kg i.v., 30 min) was 37.98 ± 4.77 and the PT (blood coagulation system; TNHH 6.675 mg/kg i.v., 30 min) was 7.12 ± 0.47. The TT (blood coagulation system; TNHH 6.675 mg/kg i.v., 30 min) was 21.63 ± 1.71, the APTT (blood coagulation system; TNHH 6.675 mg/kg i.v., 60 min) was 36.17 ± 6.76 and the PT (blood coagulation system; TNHH 6.675 mg/kg i.v., 60 min) was 7.17 ± 0.40. For the same molecule, the TT (blood coagulation system; TNHH 6.675 mg/kg i.v., 60 min) was 15.55 ± 0.95, the APTT (blood coagulation system; TNHH 6.675 mg/kg i.v., 120 min) was 38.95 ± 8.85 and the PT (blood coagulation system; TNHH 6.675 mg/kg i.v., 120 min) was 7.62 ± 0.64. For the same molecule, the TT (blood coagulation system; TNHH 6.675 mg/kg i.v., 120 min) was 15.00 ± 1.51, the APTT (blood coagulation system; TNHH 6.675 mg/kg i.v., 240 min) was 38.03 ± 9.11 and the PT (blood coagulation system; TNHH 6.675 mg/kg i.v., 240 min) was 7.97 ± 0.99. For the same molecule, the TT (blood coagulation system; TNHH 6.675 mg/kg i.v., 240 min) was 13.33 ± 0.73, the “extension time of PT” value (blood coagulation system; TNHH 6.675 mg/kg i.v., vs 0 min) was “less than 3 seconds” and the “effects on the endogenous blood coagulation pathway” value (blood coagulation system; [3]) was “no effects”. The “effects on the exogenous blood coagulation pathway and fibrinolytic system” value (blood coagulation system; [3]) was “some effects”.
